In patent publication US20130273029A1 (Novartis, published 2013):

Legend:
[1] = target: T1, Human HER3, endogenous, on human cancer cell lines (SK-Br-3, MCF7, BT-474) (human, UniProt P21860 20-1342); test: cell-based or functional assay
[2] = target: T1, Human HER3, endogenous, on human cancer …; test: cell-based or functional assay; remark: listed apart in the source
[3] = target: T1, Human HER3, endogenous, on human cancer …; test: cell-based or functional assay; remark: listed apart in the source
[4] = target: T2, Hu HER3: CD33-[Human HER3, residues 20-640]-TAG (human, UniProt P21860 20-640); test: SET, IgG vs soluble HER3-Tag
T2 construct: also called hu HER3-Tag; HER3-Tag; not shown: C-terminal TAG (e.g., FLAG TAG)
T2 sequence (P21860 20-640): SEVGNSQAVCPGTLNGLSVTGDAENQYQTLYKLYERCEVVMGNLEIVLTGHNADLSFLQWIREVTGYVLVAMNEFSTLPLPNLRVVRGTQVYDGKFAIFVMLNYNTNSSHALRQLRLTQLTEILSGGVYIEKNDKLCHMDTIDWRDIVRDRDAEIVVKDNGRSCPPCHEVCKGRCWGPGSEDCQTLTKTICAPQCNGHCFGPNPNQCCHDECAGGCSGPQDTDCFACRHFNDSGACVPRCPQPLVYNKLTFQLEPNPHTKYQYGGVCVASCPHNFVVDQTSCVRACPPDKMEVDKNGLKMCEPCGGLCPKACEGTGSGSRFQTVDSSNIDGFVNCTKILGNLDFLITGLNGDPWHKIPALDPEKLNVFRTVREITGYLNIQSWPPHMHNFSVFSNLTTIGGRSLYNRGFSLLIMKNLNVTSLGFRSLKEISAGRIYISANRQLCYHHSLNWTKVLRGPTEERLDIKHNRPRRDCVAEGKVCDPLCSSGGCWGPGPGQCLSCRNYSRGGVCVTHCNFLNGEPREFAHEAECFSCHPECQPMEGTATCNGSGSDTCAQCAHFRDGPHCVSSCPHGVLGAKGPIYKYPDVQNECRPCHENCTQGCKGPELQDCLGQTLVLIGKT
Experimental: Affinity determination in solution was essentially performed as previously described (Friguet et al., (1985) J Immunol Methods 77:305-19). In order to improve the sensitivity and accuracy of the SET method, it was transferred from classical ELISA to ECL based technology (Haenel et al., (2005) Anal Biochem 339:182-84).
The data was evaluated with XLfit software (ID Business Solutions) applying customized fitting models.
Antibody affinity was determined by solution equilibrium titration (SET) as described above. The results are summarized in Table 3 and example titration curves for MOR12616 and MOR12925 are contained in FIG. 1.

T1 sequence (P21860 20-1342): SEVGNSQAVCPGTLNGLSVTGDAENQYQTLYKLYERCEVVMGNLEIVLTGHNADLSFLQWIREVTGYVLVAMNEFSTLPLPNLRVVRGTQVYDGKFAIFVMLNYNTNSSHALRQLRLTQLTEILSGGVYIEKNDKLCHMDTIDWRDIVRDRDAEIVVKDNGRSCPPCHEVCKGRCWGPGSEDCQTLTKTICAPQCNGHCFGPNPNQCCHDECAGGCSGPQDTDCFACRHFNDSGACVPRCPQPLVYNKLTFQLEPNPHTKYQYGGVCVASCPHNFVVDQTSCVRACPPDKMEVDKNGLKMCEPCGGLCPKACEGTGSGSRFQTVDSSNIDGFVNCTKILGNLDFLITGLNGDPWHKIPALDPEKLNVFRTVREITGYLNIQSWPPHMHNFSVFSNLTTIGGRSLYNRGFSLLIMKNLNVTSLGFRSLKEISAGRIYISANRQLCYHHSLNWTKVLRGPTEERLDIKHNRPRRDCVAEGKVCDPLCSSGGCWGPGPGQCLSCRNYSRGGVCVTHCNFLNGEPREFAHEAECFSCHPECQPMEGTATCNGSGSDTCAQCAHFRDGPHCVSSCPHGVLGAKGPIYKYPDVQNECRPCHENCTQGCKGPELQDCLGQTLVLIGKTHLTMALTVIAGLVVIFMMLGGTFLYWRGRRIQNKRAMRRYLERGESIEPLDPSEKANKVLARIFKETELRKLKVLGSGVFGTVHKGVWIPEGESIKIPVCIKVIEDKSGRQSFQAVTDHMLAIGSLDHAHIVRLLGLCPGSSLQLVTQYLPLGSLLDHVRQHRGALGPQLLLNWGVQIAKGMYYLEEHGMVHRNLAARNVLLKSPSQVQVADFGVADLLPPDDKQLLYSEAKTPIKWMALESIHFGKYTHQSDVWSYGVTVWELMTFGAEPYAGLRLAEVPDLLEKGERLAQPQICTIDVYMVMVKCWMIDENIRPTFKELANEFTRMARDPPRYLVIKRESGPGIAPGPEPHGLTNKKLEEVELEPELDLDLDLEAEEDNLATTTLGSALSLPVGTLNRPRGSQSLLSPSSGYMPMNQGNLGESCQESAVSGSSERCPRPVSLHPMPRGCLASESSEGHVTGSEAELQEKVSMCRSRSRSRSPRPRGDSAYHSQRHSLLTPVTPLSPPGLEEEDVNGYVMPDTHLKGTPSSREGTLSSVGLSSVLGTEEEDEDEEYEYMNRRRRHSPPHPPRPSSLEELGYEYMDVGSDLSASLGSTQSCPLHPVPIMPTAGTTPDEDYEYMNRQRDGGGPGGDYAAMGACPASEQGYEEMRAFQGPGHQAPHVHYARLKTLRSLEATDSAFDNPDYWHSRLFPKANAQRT

BT474 pHER3 % inhibition [1] [%] | BT474 pHER3 IC50 [1] [pM] | SK-Br-3 pHER3 % inhibition [1] [%] | SK-Br-3 pHER3 IC50 [1] [pM] | BT-474 pAkt (S473) % inhibition [2] [%] | BT-474 pAkt (S473) IC50 [2] [pM] | SK-Br-3 pAkt (S473) % inhibition [2] [%] | SK-Br-3 pAkt (S473) IC50 [2] [pM] | BT-474 proliferation % inhibition [3] [%] | BT-474 proliferation IC50 [3] [nM] | SK-Br-3 proliferation % inhibition [3] [%] | SK-Br-3 proliferation IC50 [3] [nM] | Kd [4] [nM] | MCF7 pHER3 % inhibition [1] [%] | MCF7 pHER3 IC50 [1] [pM] | MCF7 proliferation % inhibition [3] [%] | MCF7 proliferation IC50 [3] [nM] | Binder
45 | 4240 | 71 | 1000 | 76 | 39100 | 86 | 734 | 22 | 42.8 | 40 | 3 | 0.096 |  |  |  |  | MOR13752 (antibody, human IgG1, kappa, V domains shown, tested as IgG) VH: QVQLVQSGAEVKKPGESLKISCKGSGYSFTNYWVAWVRQMPGKGLEWMGIIYPGGSDTIYSPSFQGQVTISADKSISTAYLQWSSLKASDTAMYYCARVHIIQPPSAWSYNAMDVWGQGTLVTVSS VL: DIQMTQSPSSLSASVGDRVTITCRASQSISTYLNWYQQKPGKAPKLLIFGASNLQSGVPSRFSGSGSGTDFTLTISSLQPEDFATYYCQQSITELFTFGQGTKVEIKR
62 | 1590 | 76 | 123 |  |  |  |  |  |  | 44 | 0.533 |  | 80 | 631 | 23 | 0.497 | MOR12924 (antibody, human IgG1, kappa, V domains shown) VH: QVQLVQSGAEVKKPGESLKISCKGSGYSFTNSWVAWVRQMPGKGLEWMGIIYPGNSDTIYSPSFQGQVTISADKSISTAYLQWSSLKASDTAMYYCARVHIIQPPSAWSYNAMDVWGQGTLVTVSS VL: DIQMTQSPSSLSASVGDRVTITCRASQSISTYLNWYQQKPGKAPKLLIFGASNLQSGVPSRFSGSGSGTDFTLTISSLQPEDFATYYCQQSVWEPATFGQGTKVEIKR
61 | 1050 | 74 | 70 |  |  |  |  |  |  | 42 | 0.062 |  | 83 | 540 | 29 | 0.266 | MOR12923 (antibody, human IgG1, kappa, V domains shown) VH: QVQLVQSGAEVKKPGESLKISCKGSGYSFTNSWVAWVRQMPGKGLEWMGIIYPGNSDTIYSPSFQGQVTISADKSISTAYLQWSSLKASDTAMYYCARVHIIQPPSAWSYNAMDVWGQGTLVTVSS VL: DIQMTQSPSSLSASVGDRVTITCRASQSISTYLNWYQQKPGKAPKLLIFGASNLQSGVPSRFSGSGSGTDFTLTISSLQPEDFATYYCQQSMYLPFTFGQGTKVEIKR
44 | 6680 | 60 | 1440 | 60 | 17800 | 83 | 1640 | 21 | 13.8 | 34 | 5.47 | 0.16 |  |  |  |  | MOR13750 (antibody, human IgG1, kappa, V domains shown, tested as IgG) VH: QVQLVQSGAEVKKPGESLKISCKGSGYSFTSSWVAWVRQMPGKGLEWMGIIYPGGSDTIYSPSFQGQVTISADKSISTAYLQWSSLKASDTAMYYCARVHIIQPPSAWSYNAMDVWGQGTLVTVSS VL: DIQMTQSPSSLSASVGDRVTITCRASQSISTYLNWYQQKPGKAPKLLIFGASNLQSGVPSRFSGSGSGTDFTLTISSLQPEDFATYYCQQSITELFTFGQGTKVEIKR
49 | 3900 | 63 | 606 | 64 |  | 84 | 465 | 17 | 8.01 | 40 | 6.47 | 0.29 |  |  |  |  | MOR13754 (antibody, human IgG1, kappa, V domains shown, tested as IgG) VH: QVQLVQSGAEVKKPGESLKISCKGSGYSFTSYWVAWVRQMPGKGLEWMGIIYPGGSDTIYSPSFQGQVTISADKSISTAYLQWSSLKASDTAMYYCARVHIIQPPSAWSYNAMDVWGQGTLVTVSS VL: DIQMTQSPSSLSASVGDRVTITCRASQSISTYLNWYQQKPGKAPKLLIFGASNLQSGVPSRFSGSGSGTDFTLTISSLQPEDFATYYCQQSITELFTFGQGTKVEIKR
